From publication PMC8191301 (The Journal of Biological Chemistry, 2021)
No end group written: not given here.

Biological target: T1, human Proliferating Cell Nuclear Antigen (hPCNA) (human, UniProt P12004)
T1 sequence (P12004 1-259): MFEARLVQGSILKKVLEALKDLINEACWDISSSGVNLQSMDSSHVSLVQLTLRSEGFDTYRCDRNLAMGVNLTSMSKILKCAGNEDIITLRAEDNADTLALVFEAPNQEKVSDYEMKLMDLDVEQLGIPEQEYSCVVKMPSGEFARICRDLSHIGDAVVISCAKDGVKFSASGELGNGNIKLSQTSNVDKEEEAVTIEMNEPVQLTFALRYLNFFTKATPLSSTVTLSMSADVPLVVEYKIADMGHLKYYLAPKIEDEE
Experiment: SPR
Conditions: not given
KRRQTRITEYFHSKR-NH2 (designed binder) [p21μ–RD2] gave a Kd of 1.12 nM.
For KRRQTSMTDHYHSKR-NH2 [p21μ–F150H], the Kd was 159 nM.
Work on KRRQTSMTDYFHSKR-NH2 [p21μ–FY150/151YF] yielded a Kd of 2.18 nM.
For KRRQRSMTDFYHSKR-NH2 [p21μ–T145R], the “fold decrease in affinity relative to p21μ” value was 7 fold.
KRRNTSMTDFYHSKR-NH2 [p21μ–Q144N] showed a Kd of 772 nM.
In the case of KRRDTSMTDFYHSKR-NH2 [p21μ–Q144D], the Kd is reported as 714 nM.
In the case of KRRQRRMTDFYHSKR-NH2 [p21μ–TS145/146RR], the Kd is reported as 1.83 nM.
For KRRQTSITDFYHSKR-NH2 [p21μ–M147I], the Kd was 11.1 nM.
With KRRQTSMEDFYHSKR-NH2 [p21μ–T148E] the “fold lower affinity than p21μ” value was about 6 fold.
With KRRQKSMTDFYHSKR-NH2 [p21μ–T145K] the “fold decrease in affinity relative to p21μ” value was 8 fold.
With KRRQRKMTDFYHSKR-NH2 [p21μ–TS145/146RK] the Kd was 17.3 nM.
For KRRQTSMDEFYHSKR-NH2 [p21μ–TD148/149DE], the “fold lower affinity than p21μ” value was 28 fold.
With KRRQTSMEEFYHSKR-NH2 [p21μ–TD148/149EE] the “fold lower affinity than p21μ” value was 4 fold.
In the case of KRRQKRMTDFYHSKR-NH2 [p21μ–TS145/146KR], the Kd is reported as 37 nM.

Biological target: hPCNA (Homo sapiens, UniProt P12004)
Sequence (P12004 whole entry): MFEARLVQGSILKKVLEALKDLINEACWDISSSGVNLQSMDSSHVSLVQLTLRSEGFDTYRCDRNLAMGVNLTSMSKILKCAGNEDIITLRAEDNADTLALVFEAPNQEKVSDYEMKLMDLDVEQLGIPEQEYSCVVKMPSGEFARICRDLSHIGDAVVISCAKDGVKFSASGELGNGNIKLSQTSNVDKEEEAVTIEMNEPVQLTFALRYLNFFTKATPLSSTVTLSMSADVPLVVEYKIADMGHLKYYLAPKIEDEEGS
Experiment: not given
Conditions: isothermal calorimetry; ref [22]; cited from earlier work
In the case of “Tyr151Phe^P8–modified p21 peptide: literature p21 (residues 139–160) peptide with Tyr151Phe modification (GRKRRQTSMTDFFHSKRRLIFS; UniProt P38936 139-160, looked up, variant Y151F) [reference compound]”, the “fold decrease in binding affinity compared with the analogous native peptide (residues 139–160)” value is listed as 3 fold.

Same assay, conditions: p21 protein binding hPCNA; ref [13], [14], [15]; cited from earlier work
For “p21: cell-cycle regulator protein, highest affinity hPCNA-interacting protein known”, the Kd is listed as 2.5 to 90 nM.

Biological target: T1, human Proliferating Cell Nuclear …
Experiment: SPR
Conditions: not given
Remark: another data set of the same source
Work on KRRQKKITDYFHSKR-NH2 [p21μ–Pogo] yielded a Kd of 8.82 nM.
KRRMQTLESFFHSKR-NH2 [p21μ–pol η] showed a Kd of 2540 nM.
KRRQRRVTDFFHSKR-NH2 [p21μ–Cdt1] showed a Kd of 8.76 nM.
